Reference: patent US20260193372A1 (Hoffmann-La Roche, published 2026)
Residue numbers refer to the chain shown, from its start. Names and notes keep the numbering of the source. Values belong to the binder of their own block, whether it stands above or below them.

Experiments:
[1] = target: mixture of 5 nM human C3, 5 nM human C3a and 2.5 nM human C3b coated on the plate; assay: counterscreening ELISA, plate coated with a mixture of human C3, C3a and C3b, Fab supernatant
[2] = target: mixture of 10 nM human Factor B, 5 nM human Ba and 10 nM human Bb coated on the plate; assay: counterscreening ELISA, plate coated with a mixture of human Factor B, Ba and Bb, Fab supernatant
[3] = target: T1, stabilized human C3bBb complex comprising the Bb subunit of the FB protein of SEQ ID NO: 3 (triple mutant), … (human, UniProt P01024 23-667; P00751 260-764; P01024 749-1663, limits assumed, biotinylated with EZ-Link HPDP-Biotin (Cys)); assay: ELISA, biotinylated C3bBb on streptavidin plate, Fab supernatant, anti kappa/anti T7 HRP
T1 construct: also called C3bBb (D279G/350N/M458I); C3bBb triple mutant-HPDP
T1 sequence (P01024 23-667 limits assumed, stated change not applied, chain 1 of 3, one chain of several): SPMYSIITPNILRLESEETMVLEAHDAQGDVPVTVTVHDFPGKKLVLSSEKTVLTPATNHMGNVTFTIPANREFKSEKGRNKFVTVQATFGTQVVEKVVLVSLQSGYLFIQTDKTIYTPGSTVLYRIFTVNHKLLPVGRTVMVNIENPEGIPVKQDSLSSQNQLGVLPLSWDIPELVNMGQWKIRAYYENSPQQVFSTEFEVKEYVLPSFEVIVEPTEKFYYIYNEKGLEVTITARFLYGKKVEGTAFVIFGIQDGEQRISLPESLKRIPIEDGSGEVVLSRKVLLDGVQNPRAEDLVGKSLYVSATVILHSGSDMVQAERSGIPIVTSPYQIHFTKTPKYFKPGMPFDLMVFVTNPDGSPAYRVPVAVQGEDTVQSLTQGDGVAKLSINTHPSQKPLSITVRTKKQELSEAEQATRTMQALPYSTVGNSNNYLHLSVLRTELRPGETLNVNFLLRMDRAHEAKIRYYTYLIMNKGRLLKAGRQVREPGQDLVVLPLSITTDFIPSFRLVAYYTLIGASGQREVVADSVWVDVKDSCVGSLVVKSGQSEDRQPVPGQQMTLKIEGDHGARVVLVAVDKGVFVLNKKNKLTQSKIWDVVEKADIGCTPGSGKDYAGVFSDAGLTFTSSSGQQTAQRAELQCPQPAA
T1 sequence (P01024 749-1663 limits assumed, stated change not applied, chain 3 of 3, one chain of several): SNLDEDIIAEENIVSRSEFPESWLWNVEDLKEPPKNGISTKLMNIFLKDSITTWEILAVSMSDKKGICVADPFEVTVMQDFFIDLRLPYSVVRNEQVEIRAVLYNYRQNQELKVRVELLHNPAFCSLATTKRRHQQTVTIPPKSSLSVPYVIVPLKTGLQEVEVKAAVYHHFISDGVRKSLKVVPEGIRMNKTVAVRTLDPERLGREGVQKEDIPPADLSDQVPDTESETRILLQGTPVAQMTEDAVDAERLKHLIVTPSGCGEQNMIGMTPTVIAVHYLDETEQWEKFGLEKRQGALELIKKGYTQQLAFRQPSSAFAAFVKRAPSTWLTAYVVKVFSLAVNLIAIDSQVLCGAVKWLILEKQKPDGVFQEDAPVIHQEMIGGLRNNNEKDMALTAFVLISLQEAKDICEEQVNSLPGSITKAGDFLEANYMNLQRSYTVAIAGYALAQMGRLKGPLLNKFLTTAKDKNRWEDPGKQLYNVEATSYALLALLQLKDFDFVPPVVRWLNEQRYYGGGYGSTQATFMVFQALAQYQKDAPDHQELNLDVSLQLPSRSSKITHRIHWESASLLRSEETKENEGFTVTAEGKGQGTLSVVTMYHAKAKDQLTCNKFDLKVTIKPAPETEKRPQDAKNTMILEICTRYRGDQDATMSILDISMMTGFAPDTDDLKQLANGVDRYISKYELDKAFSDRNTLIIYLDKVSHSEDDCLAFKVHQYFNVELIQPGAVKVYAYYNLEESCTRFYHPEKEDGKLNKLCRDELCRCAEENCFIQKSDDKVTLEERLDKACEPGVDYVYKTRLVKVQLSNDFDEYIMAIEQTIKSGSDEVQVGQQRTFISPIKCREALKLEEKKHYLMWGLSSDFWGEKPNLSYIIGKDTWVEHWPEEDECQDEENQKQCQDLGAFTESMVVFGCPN
Description: (§1) Method: 20 μl of a mixture of 500 ng/ml stabilized human C3bBb-Cys-HPDP-Biotin (inhouse preparation), 1:3000 mouse anti human kappa HRP (Southern Biotech 9230-05) and 1:2000 Mouse IgG anti T7 Tag HRP (Novagen 69048-3) was added to a Microcoat Streptavidine coated 384 well Microplate (Microcoat 11974998001). 25 μl sample was added to the plate and incubated at room temperature for 1 hour. After incubation plates were washed with 90 μl/well washing buffer using a Biotek EL406 Washer and 30 μl TMB (3,3′,5,5′-3,3,5,5-Tetramethylbenzidine, Roche 11835033001) was added. After a 5 Minute incubation at room temperature the optical density (OD) was measured at 370 nm using an En Vision Multimode Plate Reader (Perkin Elmer).

[4] = target: T2, stabilized human C3bBb complex comprising the Bb subunit of the FB protein of SEQ ID NO: 2 (single mutant), … (human, UniProt P01024 23-667; P00751 260-764; P01024 749-1663, limits assumed, biotinylated with EZ-Link HPDP-Biotin (Cys)); assay: as above
T2 construct: also called C3bBb (D279G)
T2 sequence (P01024 23-667 limits assumed, stated change not applied, chain 1 of 3): as the sequence (P01024 23-667 limits assumed, stated change not applied, chain 1 of 3, one chain of several) above
T2 sequence (P00751 other isoform, or with tags, fused parts or gaps mutant limits assumed, chain 2 of 3): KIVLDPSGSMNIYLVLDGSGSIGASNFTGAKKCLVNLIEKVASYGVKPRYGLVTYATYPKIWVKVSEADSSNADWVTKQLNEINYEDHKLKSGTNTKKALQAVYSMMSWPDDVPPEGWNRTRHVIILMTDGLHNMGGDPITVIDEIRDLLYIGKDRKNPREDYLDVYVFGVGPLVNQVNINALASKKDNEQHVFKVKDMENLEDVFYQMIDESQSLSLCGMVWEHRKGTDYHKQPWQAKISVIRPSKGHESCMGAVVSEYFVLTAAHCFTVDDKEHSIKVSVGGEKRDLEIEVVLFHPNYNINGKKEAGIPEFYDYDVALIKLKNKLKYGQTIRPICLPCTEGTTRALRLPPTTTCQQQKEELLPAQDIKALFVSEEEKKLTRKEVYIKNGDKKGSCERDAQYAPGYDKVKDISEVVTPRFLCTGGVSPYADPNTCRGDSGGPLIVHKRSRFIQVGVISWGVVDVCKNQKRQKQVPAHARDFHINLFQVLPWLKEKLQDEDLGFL
T2 sequence (P01024 749-1663 limits assumed, stated change not applied, chain 3 of 3): as the sequence (P01024 749-1663 limits assumed, stated change not applied, chain 3 of 3, one chain of several) above
Description: as §1

[5] = target: T3, plasma purified C3b (Complement Technology), biotinylated at cysteine 1010 with Maleimide-PEG3-biotin (human, UniProt P01024 23-667; P01024 749-1663, limits assumed, cysteine 1010 biotinylated (Maleimide-PEG3-biotin)); assay: BLI, dissociation of C3bBb, Ni2+ buffer, against wild type C3bBb formed in presence of magnesium ions
T3 construct: Loaded on streptavidin BLI sensors; also called Complement C3 beta chain (C3b); C3 fragment
T3 sequence (P01024 23-667 limits assumed, chain 1 of 2): as the sequence (P01024 23-667 limits assumed, stated change not applied, chain 1 of 3, one chain of several) above
T3 sequence (P01024 749-1663 limits assumed, chain 2 of 2): as the sequence (P01024 749-1663 limits assumed, stated change not applied, chain 3 of 3, one chain of several) above

[6] = target: T3, plasma purified C3b (Complement …); assay: BLI, biotinylated C3b on streptavidin sensor, FB with factor D, Mg2+ buffer, dissociation of C3bBb, double exponential fit
Description: To analyze stability of the C3bBb complexes having the different Bb subunits, C3b cysteine 1010 was biotinylated by incubating plasma purified C3b (Complement Technology) overnight at 4° C. in presence of 5 molar excess Maleimide-PEG3-biotin (Thermo Fisher Scientific) followed by purification on a Zeba spin column 40K (Thermo Fisher Scientific). This material was used to load streptavidin functionalized BLI sensors (SA sensors; Fortebio) in an Octet RED 384 device (Fortebio) at high density (5 nm BLI signal). C3bBb was assembled by exposing the C3b loaded sensors to different recombinant factor B variants (i.e. wild type SEQ ID NO: 1; D279G variant of SEQ ID NO: 2; D279G K350N M458I triple variant of SEQ ID NO: 3) in presence of 54 nM plasma purified factor D (Complement Technology) in HBS-T (Mg) buffer (150 mM NaCl, 10 mM HEPES, 1 mM MgCl2, 0.005% Tween20. pH 7.4) at 22° C. […]
After subtraction of the signal recorded from parallel reference sensors omitting the C3b loading step and subtraction of a control sensor omitting factor B and factor D, data of the dissociation phase was fitted to the double exponential ((A*exp(((−1)*B)*x)))+(C*exp(((−1)*D)*x)) using XLfit (IDBS software), allowing for heterogeneity in the assembled convertase population. […]

[7] = target: T3, plasma purified C3b (Complement …); assay: BLI, biotinylated C3b on streptavidin sensor, FB with factor D, Ni2+ buffer, dissociation of C3bBb, single exponential fit
Text: Correction of the BLI trace was identical to the experiment in presence of magnesium. Different from the Mg2+ containing C3bBb complexes, only one species was detected during dissociation and a single exponential decay (A*exp(((−1)*B)*x)) was used for analysis.

B3: C3bBb.P048.127 (Fab, V domains shown)
VH: GQLVESGGGLVKPGGSLRLSCKASGFYWGPGAMSWVRQAPGKGLEWVGSISPKGGSTEYNTKVYGRFTISRDNNQDTLYLQMNSLRAEDTAVYYCARDIGFFDTWGQGTLVTVSS
VL: HQMTQSPSSLSASVGDRVTITCDGEWDISNYLAWYQQKPGKAPKLLIFDAKYRAPEVPSRFSGSGSGRDFTLTISSLQPEDFATYYCQQYNRMYFTFGQGTKVEIK
notes: Tested as soluble Fab in E. coli supernatant with a T7 tag at the C-terminus of the Fab CH1 domain; detected with anti human kappa
- OD (370 nm) [1]: -0.006 OD
- OD (370 nm) [2]: 0.002 OD
- OD (370 nm) [3]: 0.187 OD
- OD (370 nm) [4]: 2.42 OD

B4: C3bBb.P048.241 (Fab, V domains shown)
VH: B3 VH with T57A, E58W, T61N, K62N, V63F, Y64T
VL: INQMTQSPSSLSASVGDRVTITCQAKWVISNYLAWYQQKPGKAPKLLIFDAKYRAPEVPSRFSGSGSDGTFTLTISSLQPEDFATYYCQQYDWWPYTFGQGTKVEIK
notes: as for B3
- OD (370 nm) [1]: 0.17 OD
- OD (370 nm) [2]: 0.037 OD
- OD (370 nm) [3]: 2.38 OD
- OD (370 nm) [4]: 2.57 OD

B5: C3bBb.P055.015 (Fab, V domains shown)
VH: B3 VH with T57A, N60A, T61S
VL: DYQMTQSPSSLSASVGDRVTITCEAHSQISNYLAWYQQKPGKAPKLLIFDAKYRAPEVPSRFSGSGSGPDFTLTISSLQPEDFATYYCQQYNDFWLTFGQGTKVEIK
notes: as for B3
- OD (370 nm) [1]: -0.014 OD
- OD (370 nm) [2]: 0.004 OD
- OD (370 nm) [3]: -0.01 OD
- OD (370 nm) [4]: 0.86 OD

B6: recombinant human FB with D279G, K350N and M458I with His Tag and Precission site (enzyme)
chain: KIVLDPSGSMNIYLVLDGSGSIGASNFTGAKKCLVNLIEKVASYGVKPRYGLVTYATYPKIWVKVSEADSSNADWVTKQLNEINYEDHKLNSGTNTKKALQAVYSMMSWPDDVPPEGWNRTRHVIILMTDGLHNMGGDPITVIDEIRDLLYIGKDRKNPREDYLDVYVFGVGPLVNQVNINALASKKDNEQHVFKVKDIENLEDVFYQMIDESQSLSLCGMVWEHRKGTDYHKQPWQAKISVIRPSKGHESCMGAVVSEYFVLTAAHCFTVDDKEHSIKVSVGGEKRDLEIEVVLFHPNYNINGKKEAGIPEFYDYDVALIKLKNKLKYGQTIRPICLPCTEGTTRALRLPPTTTCQQQKEELLPAQDIKALFVSEEEKKLTRKEVYIKNGDKKGSCERDAQYAPGYDKVKDISEVVTPRFLCTGGVSPYADPNTCRGDSGGPLIVHKRSRFIQVGVISWGVVDVCKNQKRQKQVPAHARDFHINLFQVLPWLKEKLQDEDLGFL
notes: Cleaved by factor D in the assay; the Bb subunit stays on C3b; also called FB (D279G, K350N and M458I); triple mutated Bb
- fold increase in C3bBb half-life [5]: 135 fold
- prevalence of main species [6]: 93%
- t ½ [6]: 1.98 h
- prevalence of main species [7]: 100%
- t ½ [7]: 11.3 h

Results, then the binder that gave them:

- OD (370 nm) [1]: -0.005 OD
- OD (370 nm) [2]: -0.01 OD
- OD (370 nm) [3]: 2.9 OD
- OD (370 nm) [4]: 0.023 OD
B1: C3bBb.P045.072 (Fab, V domains shown)
VH: KLQLVESGGGLVKPGGSLRLSCAASGRRFGVQDMSWVRQAPGKGLEWVGSISPKGDHKYLNTKFIGRFTISRDNSKNTLYLQMNSLRAEDTAVYYCARDWGYFDQWGQGTLVTVSS
VL: AIQMTQSPSSLSASVGDRVTITCHGSYWLSSEVAWYQQKPGKAPKLLIYDGNGIIGNVPSRFSGSGSHEDYTLTISSLQPEDFATYYCQQYRYHPYTFGHGTKVEIK
notes: as for B3

- OD (370 nm) [1]: 0.001 OD
- OD (370 nm) [2]: 0.006 OD
- OD (370 nm) [3]: 1.9 OD
- OD (370 nm) [4]: 0.004 OD
B2: C3bBb.P048.061 (Fab, V domains shown)
VH: B3 VH with E58D, Y59I, T61P, V63I, Y64G
VL: AIQMTQSPSSLSASVGDRVTITCQGSWLISNYLAWYQQKPGKAPKLLIFDAKYRAPEVPSRFSGSGSGTDFTLTISSLQPEDFATYYCQQYGGRLLTFGQGTKVEIK
notes: as for B3
